Here are results for 3 molecules from paper PMC5850324, “Interactions between the Hepatitis C Virus Nonstructural 2 Protein and Host Adaptor Proteins 1 and 4 Orchestrate Virus Release” (mBio, 2018).

Assay in all cases: split reporter (BiFC, NanoBiT); protein fragment complementation assay (split luciferase): GLuc1-AP μ subunit and GLuc2-HCV protein transfected pairwise into 293T cells; luciferase at 24 h; normalized luminescence ratio (NLR), positive if NLR >25 (>2.2 SD above a random reference set); mutant panels plotted relative to WT; NS2-AP-1B also tested after treatment with compound 7745, 12i, sunitinib or erlotinib

For assay [1], the target named is GLuc1-tagged μ subunit of the AP-4 complex (UniProt O00189).
Sequence of GLuc1-tagged μ subunit of the AP-4 complex (O00189 whole entry, one chain of several): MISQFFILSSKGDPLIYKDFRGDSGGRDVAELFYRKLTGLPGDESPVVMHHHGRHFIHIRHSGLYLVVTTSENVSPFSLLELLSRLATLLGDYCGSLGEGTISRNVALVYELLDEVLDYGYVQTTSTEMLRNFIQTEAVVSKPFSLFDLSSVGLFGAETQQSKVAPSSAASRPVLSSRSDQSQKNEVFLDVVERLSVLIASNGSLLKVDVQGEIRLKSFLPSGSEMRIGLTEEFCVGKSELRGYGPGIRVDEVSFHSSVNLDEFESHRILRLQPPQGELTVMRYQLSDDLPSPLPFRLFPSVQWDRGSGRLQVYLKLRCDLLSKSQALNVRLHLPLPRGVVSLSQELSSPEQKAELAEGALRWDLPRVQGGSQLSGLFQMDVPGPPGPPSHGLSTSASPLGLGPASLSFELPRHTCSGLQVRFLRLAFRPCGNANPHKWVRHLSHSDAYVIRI
Assay [2] addresses T1, GLuc-tagged T144A mutant AP-1A (μ subunit) (UniProt Q9BXS5 1-423, T144A).
T1 construct: μ subunit of adaptor protein complex AP-1A (AP1M1) with T144A; also called phosphorylation site mutant AP-1; source: transfected cells (PCA); not shown: GLuc1 luciferase fragment, N-terminal, kept
T1 sequence: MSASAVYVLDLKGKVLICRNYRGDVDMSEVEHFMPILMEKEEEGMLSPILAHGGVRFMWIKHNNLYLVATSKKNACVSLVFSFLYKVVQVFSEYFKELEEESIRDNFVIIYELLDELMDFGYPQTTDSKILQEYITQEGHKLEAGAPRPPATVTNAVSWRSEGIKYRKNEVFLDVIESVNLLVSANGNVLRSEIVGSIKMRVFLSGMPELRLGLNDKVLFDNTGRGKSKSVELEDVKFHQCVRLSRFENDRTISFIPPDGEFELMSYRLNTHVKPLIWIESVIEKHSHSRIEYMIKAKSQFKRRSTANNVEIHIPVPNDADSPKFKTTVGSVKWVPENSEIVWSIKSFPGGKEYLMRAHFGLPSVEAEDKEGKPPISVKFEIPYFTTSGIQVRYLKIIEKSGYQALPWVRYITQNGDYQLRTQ
As to conditions: partners not purified.

The target of assay [3] is T2, GLuc-tagged T144A mutant AP-1B (μ subunit) (UniProt Q9Y6Q5 1-423, T144A).
T2 construct: μ subunit of adaptor protein complex AP-1B with T144A; also called phosphorylation site mutant AP-1; source: transfected cells (PCA); not shown: GLuc1 luciferase fragment, N-terminal, kept
T2 sequence: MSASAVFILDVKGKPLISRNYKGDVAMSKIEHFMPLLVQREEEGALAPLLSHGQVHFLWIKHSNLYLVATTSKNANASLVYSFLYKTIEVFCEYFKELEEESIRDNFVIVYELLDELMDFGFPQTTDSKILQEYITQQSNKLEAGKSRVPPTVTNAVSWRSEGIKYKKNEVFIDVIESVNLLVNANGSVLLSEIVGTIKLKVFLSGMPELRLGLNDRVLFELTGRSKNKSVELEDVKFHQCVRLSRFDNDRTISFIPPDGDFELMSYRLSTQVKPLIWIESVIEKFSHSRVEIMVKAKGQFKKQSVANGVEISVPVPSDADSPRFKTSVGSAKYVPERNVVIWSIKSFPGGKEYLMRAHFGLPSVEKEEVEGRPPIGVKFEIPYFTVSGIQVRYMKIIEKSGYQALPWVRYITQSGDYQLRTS
As to conditions: partners not purified.

Regarding “GLuc-NS2 double mutant (L202A-L217A) (natural protein)”, the fold reduction of binding (NLR) relative to WT NS2 in assay [1] was 3 fold.

In the case of “GLuc-NS2 quadruple mutant (L202A-L203A-L216A-L217A) (natural protein)”, the fold reduction of binding (NLR) relative to WT NS2 in assay [1] amounted to 4 fold.

B1: GLuc2-NS2 (hepatitis C virus nonstructural 2 protein, wild type) (natural protein)
chain: YDASVHGQIGAALLVLITLFTLTPGYKTLLSRFLWWLCYLLTLAEAMVQEWAPPMQVRGGRDGIIWAVAIFCPGVVFDITKWLLAVLGPAYLLKGALTRVPYFVRAHALLRMCTMVRHLAGGRYVQMVLLALGRWTGTYIYDHLTPMSDWAANGLRDLAVAVEPIIFSPMEKKVIVWGAETAACGDILHGLPVSARLGREVLLGPADGYTSKGWSLL
notes: cut product of the polyprotein; also called WT NS2; GLuc-NS2; source: 293T, transfected (PCA); Huh7.5, transfected, membrane fraction (co-IP) and knockout cells (PCA); not shown: GLuc2 luciferase fragment, N-terminal, kept
As for B1, the “fold reduction of binding (NLR) relative to WT AP-1A” value in assay [2] is approximately 2 fold. Further, the “fold reduction of binding (NLR) relative to WT AP-1B” value in assay [3] is approximately 2 fold.
